Among the data in patent US7691605 are cell survival in DHFR selection media lacking glycine, hypoxanthine and thymidine (-GHT) values, retold here.

Where only a bound is given, the exact number is not on record here.

This assay addresses Lz-linker-DHFR 106-187 (yeast) (UniProt P03069). The assay can be described thus: cell-based or functional assay.

For the substance “Lz-linker-DHFR 1-105 (from UniProt P03069 253-274)”, the cell survival in DHFR selection media lacking glycine, hypoxanthine and thymidine (-GHT) is less than 90 % viability.
